Results reported in patent US20250243274A1 (JIBE THERAPEUTICS, published 2025).

Target: the molecule itself
Experiment: SDS-PAGE, no laddering in the reduced lane

B1: JIB34 (bispecific antibody)
heavy: QVQLQQPGAELVKPGASVKMSCKASGYTFTNYWINWVKQRPGQGLEWIGDIYPGGGITNYNEKFKTKATLTLDTSSSTVYMQLSSLTSEDSAVYYCSRSYGKYFDYWGQGTTLIVSSASTKGPSVFPLAPSSKSTSGGTAALGCLVKDYFPEPVTVSWNSGALTSGVHTCPAVLQSSGLYSLSSVVTVPSSSLGTQTYICNVNHKPSNTKVDKKVEPKSSDKTHTGGHHHHHH
light: DIKMTQSPSSMYASVGERVTITCKASQDIKSYLTWYQKKPWKSPRTLIFYSTRLADGVPSRFSGSGSGQDFSLTISSLESDDTATYYCLQHDESPFTFGGGTKLEIKRTVAAPSVFIFPPSDEQLKSGTASVVCLLNNFYPREAKVQWKVDNALQSGNSQESVTEQDSKDSTYSLCSTLTLSKADYEKHKVYACEVTHQGLSSPVTKSFNRGESGGGGSGGGGSGGGGSDIQMTQSPSSLSASVGDRVTITCRASQDIRNYLNWYQQKPGKAPKLLIYYTSRLESGVPSRFSGSGSGTDYTLTISSLQPEDFATYYCQQGNTLPWTFGQGTKVEIKGGGGSGGGGSGGGGSEVQLVESGGGLVQPGGSLRLSCAASGYSFTGYTMNWVRQAPGKGLEWVALINPTKGVSTYNQKFKDRFTISVDKSKNTAYLQMNSLRAEDTAVYYCARSGYYGDSDWYFDVWGQGTLVTVSS
notes: HP6017 Fab (bDS) with HzUCHT1 scFv on the light chain; also called anti-Fc HP6017 HzUCHT1 IgR
Question: Does B1 bind?
Answer: no binding
